T1: rhodanese (UniProt P00586 2-297)
T1 sequence: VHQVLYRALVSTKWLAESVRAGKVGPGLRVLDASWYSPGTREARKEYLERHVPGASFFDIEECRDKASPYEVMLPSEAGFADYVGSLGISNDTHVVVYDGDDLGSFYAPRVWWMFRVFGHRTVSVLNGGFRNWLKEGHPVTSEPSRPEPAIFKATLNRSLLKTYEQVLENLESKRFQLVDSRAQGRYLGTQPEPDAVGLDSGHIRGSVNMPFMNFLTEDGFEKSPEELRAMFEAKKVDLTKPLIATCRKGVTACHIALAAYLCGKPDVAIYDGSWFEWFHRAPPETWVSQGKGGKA


Experiments:
rhodanese [1] = target: T1, rhodanese; assay: cell-based or functional assay
cyclophilin A = cyclophilin A (UniProt P62937 1-165); assay: cell-based or functional assay
rhodanese [2] = target: T1, rhodanese; assay: estimated from the molar ratio giving maximal refolding yield of rhodanese
barnase [3] = target: T2, barnase (UniProt P00648 48-157); assay: derived from the change from EX2 to EX1 amide proton exchange of barnase (NMR)
barnase [4] = target: T2, barnase; assay: derived from amide proton exchange of barnase (NMR); reference value for intact GroEL from the literature

T2 sequence (P00648 48-157): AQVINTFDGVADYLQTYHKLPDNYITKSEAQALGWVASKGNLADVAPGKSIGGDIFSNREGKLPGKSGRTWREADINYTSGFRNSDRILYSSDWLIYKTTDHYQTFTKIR

| Binder | rhodanese refolding activity (rhodanese [1]) [%] | rhodanese refolding activity above background refolding (rhodanese [1]) [%] | rhodanese refolding activity at about 25 mins (rhodanese [1]) [%] | refolding of inactivated cyclophilin A (cyclophilin A) [%] | rhodanese refolding activity after 25 mins (rhodanese [1]) [%] | Kd (rhodanese [2]) [nM] | koff (barnase [3]) [s⁻¹] | fold of the dissociation rate constant over that from intact GroEL (barnase [4]) [fold] |
| --- | --- | --- | --- | --- | --- | --- | --- | --- |
| sht-GroEL 191-345 (other) EGMQFDRGYLSPYFINKPETGAVELESPFILLADKKISNIREMLPVLEAVAKAGKPLLIIAEDVEGEALATLVVNTMRGIVKVAAVKAPGFGDRRKAMLQDIATLTGGTVISEEIGMELEKATLEDLGQAKRVVINKDTTTIIDGVGEEAAIQGR | ~42.5 | ~37.5 | ~50 | 100 |  |  |  |  |
| sht-GroEL 191-376 (other) EGMQFDRGYLSPYFINKPETGAVELESPFILLADKKISNIREMLPVLEAVAKAGKPLLIIAEDVEGEALATLVVNTMRGIVKVAAVKAPGFGDRRKAMLQDIATLTGGTVISEEIGMELEKATLEDLGQAKRVVINKDTTTIIDGVGEEAAIQGRVAQIRQQIEEATSDYDREKLQERVAKLAGGV |  |  |  | 100 | ~40 | > 100 | ~2 | < 5 |

From patent publication US20030078373A1 (published 2003)
